The record followed here is patent publication US20040071710A1.

Experiment [1] concerns the target E2 BEVS, recombinant HCV genotype 1b E2 protein produced in insect cells using Baculovirus (hepatitis C virus genotype 1b). In words: BIAcore 2000 (SPR).
Experiment [2] deals with E2 CHO, recombinant HCV genotype 1b E2 protein produced in mammalian CHO cells (hepatitis C virus genotype 1b). Nature of the experiment: BIAcore 2000 (SPR). On the technique in general: In SPR one partner is held on a chip, and binding of the other changes the refractive index at the surface.
Sequence of E2 CHO, recombinant HCV genotype 1b E2 protein produced in mammalian CHO cells (hepatitis C virus genotype 1b) (P26664 384-714): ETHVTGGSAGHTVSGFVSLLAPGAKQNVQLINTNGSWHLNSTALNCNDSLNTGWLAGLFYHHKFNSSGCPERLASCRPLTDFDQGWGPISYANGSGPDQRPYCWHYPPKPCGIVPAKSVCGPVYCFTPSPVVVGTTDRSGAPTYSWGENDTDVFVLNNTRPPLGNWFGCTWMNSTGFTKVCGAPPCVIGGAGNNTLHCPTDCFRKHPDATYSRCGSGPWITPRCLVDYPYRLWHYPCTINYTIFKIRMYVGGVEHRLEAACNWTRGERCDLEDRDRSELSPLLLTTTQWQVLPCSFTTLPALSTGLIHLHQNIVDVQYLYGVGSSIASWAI
Experiment [3] deals with E2 BEVS, recombinant HCV genotype 1b E2 protein produced in insect cells using Baculovirus (hepatitis C virus genotype 1b). In words: ELISA, E2-BEVS coated at 2 µg/ml, antibody at 1 µg/ml. A general note: An ELISA detects its analyte on a solid surface through an enzyme-linked reagent.
For experiment [4] the target is unchanged. Nature of the experiment: ELISA, E2-BEVS coated at 2 µg/ml, antibody at 0.5 µg/ml.
Experiment [5] shares this target. Nature of the experiment: ELISA, E2-BEVS coated at 2 µg/ml, antibody at 0.25 µg/ml.
For experiment [6] the target is unchanged. Nature of the experiment: ELISA, E2-BEVS coated at 2 µg/ml, antibody at 0.125 µg/ml.
Experiment [7] shares this target. Nature of the experiment: ELISA, E2-BEVS coated at 2 µg/ml, antibody at 0.0078 µg/ml.
Experiment [8] shares this target. In words: ELISA, E2-BEVS coated at 2 µg/ml, antibody at 0.0156 µg/ml.
Experiment [9] shares this target. In words: ELISA, E2-BEVS coated at 2 µg/ml, antibody at 0.0625 µg/ml.
Experiment [10] has the same target. Nature of the experiment: ELISA, E2-BEVS coated at 2 µg/ml, antibody at 0.03125 µg/ml.
For experiment [11], the target named is HCV particles from sera of HCV infected patients (hepatitis C virus genotype 1b and 1a/1b). Nature of the experiment: immuno magnetic separation of virus from patient serum, RT-PCR detection.

B1: HCV-AB 68 (antibody, V domains shown)
VH: QVQLVESGGGVVQPGRSLRLSCATSGFPFSSYGMHWVRQAPGKGLEWVAVISYDGSNEHSIDSVKGRFTISRDNSKNRLYLQMKSLRAEDMAVYFCVRGAHRSSWSGKRFDYWGQGTLVTVSS
VL: DIQMTQSPSTLSASIGDRVTITCRASLNILTWLAWYQQKPGKAPKLLIYEASSLESGVPSRFSGSGSGTQFTLTISSLQPDDFATYYCQQSNTPWTFGQGTKVEIKR
The Kd is the free concentration of one partner at which half of the binding sites on the other are occupied at equilibrium, for simple one-to-one binding. With B1, the Kd in [1] worked out at 1.7 nM; in experiment [2], 0.014 nM. In addition, the OD450 nm in experiment [3] is 0.439 OD450 nm; in experiment [4], 0.362 OD450 nm; in experiment [5], 0.305 OD450 nm; in [6] it was 0.267 OD450 nm; in experiment [7], 0.065 OD450 nm; in experiment [8] it was 0.12 OD450 nm. Moreover, the OD450 nm in [9] worked out at 0.204 OD450 nm; in [10], 0.171 OD450 nm. Also, the percentage of bound virus in [11] was determined as 50%.
